This is an account of results in US20030157533A1, “Nucleic acid labeling by Thermoanaerobacter thermohydrosulfuricus DNA polymerase I variants” (priority 2001, published 2003).

Holding throughout (type): biochemical
Assay [1] deals with Globin mRNA template annealed to P-33 labeled primer. Nature of the assay: Single nucleotide incorporation of Cy3.5-dCTP or dCTP on RNA template (reverse transcriptase reaction, FIG. 7). As to conditions: lower concentrations (0.2 uM or lower) of dye-CTP. Here is the method: The experiment shown in FIG. 7 investigates the relative efficiencies of incorporation of dye-CTP (Cy3.5-dCTP) and dCTP. Three enzyme preparations ΔTts, ΔTts F412Y, ΔTtsF412YD426R were analyzed in this experiment.
(§1) Optimized 1×buffer compositions for Reverse Transcriptase (RNA dependent DNA Polymerase) and DNA Polymerase (DNA dependent DNA polymerase) reactions for all variants of Tts Pol I are as follows. Tris, pH 8.0 (50 mM), KCl (40 mM), MgCl2 (3 mM), DTT (1 mM), DNA or RNA template (as needed), primer (5 to 50 femto mols), enzyme 0.5 to 1 units, dNTP or dNTP analog (varying concentrations as needed). In standard synthesis reactions, when full-length synthesis is monitored, 50 uM of all 4 dNTPs are included. Typical reaction volume is 10 ul. Reaction temperature was kept between 37-60 C. depending on the experimental needs. Reaction time was limited to 10 minutes for single nucleotide incorporation studies. Time was varied as needed for the purpose of the experiments, sometimes up to 1 hour if longer extensions are monitored.
The experiment shown in FIG. 7 investigates the relative efficiencies of incorporation of dye-CTP (Cy3.5-dCTP) and dCTP. Three enzyme preparations ΔTts, ΔTtsFY, ΔTtsF412YD426R were analyzed in this experiment.
In FIG. 7, Globin mRNA served as the template. A 5′ P-33 labeled primer (DNA 25-mer) was annealed to the template. Reactions were performed with varying concentrations of either Cy3.5-dCTP or dCTP alone. Inclusion of only one dNTP allowed incorporation of the next correct nucleotide alone. The sequence of the template-primer that allowed for the examination of single nucleotide “C” incorporation is shown below.
Lanes 1,2,3 and 4 contain 20, 2, 0.2, and 0.02 uM of dNTP or dye-dNTP. Lane with no label has no enzyme, to show the integrity of the starting P-33 labeled primer. Quantification of the single nucleotide extension product is one way to tell if DR change to in the enzyme led to any consequence. “P” indicates a radio labeled primer. “P+1” represents the elongated product by a single nucleotide or nucleotide analog. P+1 migrates slowly with the dye-dNTP conjugate. Note that the migration of Cy3.5 dCMP containing bands travel slowly on the gel compared to dCTP extended products. […] Essentially, incorporation is achieved at lower concentrations (less than 10 times) of dye-dNTP compared to that of the wild type polymerase. It is evident that the DR enzyme was able to incorporate Cy3.5 dCTP at concentrations as low as 0.2 uM (Cy3.5 dCTP) or even lower. […] In this experiment the template-primer is a mRNA annealed to radio labeled primer. Extension is monitored qualitatively as P+1 for the natural nucleotides and P+1* for dye labeled nucleotide. This is a promising first observation for potential use in microarray applications for cDNA probe labeling.

The subject of assay [2] is defined DNA template-DNA primer. Nature of the assay: Single nucleotide incorporation of dye-dCTP during DNA dependent DNA synthesis (FIG. 13). As to conditions: lower concentrations (0.2 uM or lower) of dye-dCTP. As for the experimental part: as §1
Primer extension was monitored using a defined DNA template-DNA primer.
In this experiment the relative efficiencies of incorporation of dye-CTP (Cy3.5-dCTP) was investigated. Three enzyme preparations were tested ΔTts, ΔTtsF412Y, and ΔTtsF412YD426R
Defined DNA shown below served as the template. A P-33 labeled primer (DNA 25 mer) was annealed to the template. Reactions were performed with varying concentrations of either Cy3.5-dCTP or dCTP alone. Inclusion of only one dNTP allowed incorporation of the next correct nucleotide alone. The sequence of the template-primer that allowed for the examination of single nucleotide “C” incorporation is shown below.
Lanes 1, 2, 3, 4 and 5 contain 20, 2, 0.2, 0.02 and 0 uM dye-dCTP. Lane 5 has no enzyme, to show the integrity of the starting p-33 labeled primer. Quantification of the single nucleotide extension product is one way to tell if DR change in the enzyme led to any consequence. “P” indicates a radio labeled primer. “P+1” represents the elongated product by a single nucleotide or nucleotide analog. P+1 migrates slowly with the dye-dNTP conjugate. Note that the migration of Cy3.5-dCTP containing band travel slowly on the gel compared to dCMP extended products. […] P+1 product is achieved between 10-100 fold less concentration of dye-dCTP with the enzyme having the DR change. Essentially, incorporation is achieved at a much lower concentration of dye-dNMP compared to the wild type enzyme. It is evident that the DR enzyme was able to incorporate Cy3.5-dCTP at concentrations as low as 0.2 uM or even lower.

In the next assay the test system is Globin mRNA. In words: Direct RNA sequencing (FIG. 8). The settings on record: compared to retroviral reverse transcriptases. The source says: Globin mRNA served as a template. The 50-mer DNA was used a primer. Standard sequencing components in Amersham Pharmacia Thermo Sequenase kit were employed for sequencing. P-33 labeled terminators (ddNTP) were obtained from Amersham Pharmacia Biotech. Post-sequencing reaction products were separated on 6% urea-polyacrylamide gels. AMV, Avian Myeloblastosis virus RT.

B1: D enzyme: 5′-3′ exonuclease deficient amino-terminally truncated Tts DNA polymerase I with unaltered aspartate at 426 (SEQ ID No. 3) (protein, listed as Thermoanaerobacter thermohydrosulfuricus)
chain: MYKFLIIDGSSLMYRAYYALPMLTTSEGLPTNALYGFTMMLIKLIEEEKPDYIAIAFDKKAPTFRHKEYQDYKATRQAMPEELAEQVDYLKEIIDGFNIKTLELEGYEADDIIGTISKLAEEKGMEVLVVTGDRDALQLVSDKVKIKISKKGITQMEEFDEKAILERYGITPQQFIDLKGLMGDKSDNIPGVPNIGEKTAIKLLKDFGTIENLIQNLSQLKGKIKENIENNKELAIMSKRLATIKRDIPIEIDFEEYKVKKFNEEKLLELFNKLEFFSLIDNIKKESSIEIVDNHKVEKWSKVDIKELVTLLQDNRNIAFYPLIYEGEIKKIAFSFGKDTVYIDVFQTEDLKEIFEKEDFEFTTHEIKDFLVRLSYKGIECKSKYIDTAVMAYLLNPSESNYDLDRVLKKYLKVDVPSYEGIFGKGRDKKKIEEIDENILADYICSRCVYLFDLKEKLMNFIEEMDMKKLLLEIEMPLVEVLKSMEVSGFTLDKEVLKELSQKIDDRIGEILDKIYKEAGYQFNVNSPKQLSEFLFEKLNLPVIKKTKTGYSTDSEVLEQLVPYNDIVSDIIEYRQLTKLKSTYIDGFLPLMDENNRVHSNFKQMVTATGRISSTEPNLQNIPIREEFGRQIRRAFIPRSRDGYIVSADYSQIELRVLAHVSGDEKLIESFMNNEDIHLRTASEVFKVPMEKVTPEMRRAAKAVNFGIIYGISDYGLSRDLKISRKEAKEYINNYFERYKGVKDYIEKIVRFAKENGYVTTIMNRRRYIPEINSRNFTQRSQAERLAMNAPIQGSAADIIKMAMVKVYNDLKKLKLKSKLILQVHDELVVDTYKDEVDIIKKILKENMENVVQLKVPLVVEIGVGPNWFLAK
Consider B1, for which the “incorporation of Cy3.5-dCTP (qualitative, P+1 band)” value in assay [1] and in assay [2] was “relatively poor incorporation” throughout.

B2: Tts F412Y: exonuclease deficient truncated Tts DNA polymerase I with F to Y change at position 412 (SEQ ID No. 5) (protein, listed as Thermoanaerobacter thermohydrosulfuricus)
chain: MYKFLIIDGSSLMYRAYYALPMLTTSEGLPTNALYGFTMMLIKLIEEEKPDYIAIAFDKKAPTFRHKEYQDYKATRQAMPEELAEQVDYLKEIIDGFNIKTLELEGYEADDIIGTISKLAEEKGMEVLVVTGDRDALQLVSDKVKIKISKKGITQMEEFDEKAILERYGITPQQFIDLKGLMGDKSDNIPGVPNIGEKTAIKLLKDFGTIENLIQNLSQLKGKIKENIENNKELAIMSKRLATIKRDIPIEIDFEEYKVKKFNEEKLLELFNKLEFFSLIDNIKKESSIEIVDNHKVEKWSKVDIKELVTLLQDNRNIAFYPLIYEGEIKKIAFSFGKDTVYIDVFQTEDLKEIFEKEDFEFTTHEIKDFLVRLSYKGIECKSKYIDTAVMAYLLNPSESNYDLDRVLKKYLKVDVPSYEGIFGKGRDKKKIEEIDENILADYICSRCVYLFDLKEKLMNFIEEMDMKKLLLEIEMPLVEVLKSMEVSGFTLDKEVLKELSQKIDDRIGEILDKIYKEAGYQFNVNSPKQLSEFLFEKLNLPVIKKTKTGYSTDSEVLEQLVPYNDIVSDIIEYRQLTKLKSTYIDGFLPLMDENNRVHSNFKQMVTATGRISSTEPNLQNIPIREEFGRQIRRAFIPRSRDGYIVSADYSQIELRVLAHVSGDEKLIESFMNNEDIHLRTASEVFKVPMEKVTPEMRRAAKAVNYGIIYGISDYGLSRDLKISRKEAKEYINNYFERYKGVKDYIEKIVRFAKENGYVTTIMNRRRYIPEINSRNFTQRSQAERLAMNAPIQGSAADIIKMAMVKVYNDLKKLKLKSKLILQVHDELVVDTYKDEVDIIKKILKENMENVVQLKVPLVVEIGVGPNWFLAK
As to B2, the “incorporation of Cy3.5-dCTP (qualitative, P+1 band)” value in assay [1] and in assay [2] was “decreased incorporation” throughout. Further, the “quality of sequence information from short stretches of RNA” value with Globin mRNA is given as “excellent sequence information”.
